What was measured:
[1] = biological target: GST-SH3 (SH3 domain of cortactin fused to GST) (UniProt Q14247); experiment: GST pull-down with recombinant proteins, anti-MBP immunoblot, quantified; settings: 10% of the input MBP protein loaded; n = 2; parent: est. 1.0; read off a plot
[2] = biological target: cortactin (CTTN), endogenous in MKN-74 cells (UniProt Q14247); experiment: GFP-trap pull-down from cell lysates, anti-cortactin immunoblot, quantified; settings: MKN-74 HS1BP3 KO cells expressing EGFP-HS1BP3 WT or PRR3.1 mutant; n = 4; parent: est. 1.0; read off a plot
[3] = biological target: GST-SH3 (SH3 domain of cortactin fused to GST) (UniProt Q14247); experiment: GST pull-down from cell lysates, anti-HS1BP3 immunoblot, quantified; settings: lysates of MKN-74 HS1BP3 KO cells rescued with EGFP-HS1BP3 WT or PRR3.1 mutant; n = 2; parent: est. 8.5; read off a plot; scale: % of GST-SH3 interaction

Sequence of GST-SH3 (SH3 domain of cortactin fused to GST) (Q14247 492-550): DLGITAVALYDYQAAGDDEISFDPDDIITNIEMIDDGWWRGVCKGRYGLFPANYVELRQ
Sequence of EGFP-HS1BP3 WT (Q53T59 whole entry, change not shown): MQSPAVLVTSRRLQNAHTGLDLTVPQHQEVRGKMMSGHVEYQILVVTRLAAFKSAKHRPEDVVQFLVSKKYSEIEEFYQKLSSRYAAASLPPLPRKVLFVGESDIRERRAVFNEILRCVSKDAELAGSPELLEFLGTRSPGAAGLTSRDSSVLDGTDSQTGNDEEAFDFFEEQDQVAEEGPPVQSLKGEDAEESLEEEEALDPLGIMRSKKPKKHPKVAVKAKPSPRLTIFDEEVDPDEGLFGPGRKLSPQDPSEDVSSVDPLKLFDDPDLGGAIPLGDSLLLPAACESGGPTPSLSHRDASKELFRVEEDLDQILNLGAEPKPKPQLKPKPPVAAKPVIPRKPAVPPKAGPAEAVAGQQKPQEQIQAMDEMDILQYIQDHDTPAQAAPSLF
Sequence of full-length MBP-HS1BP3 (from UniProt Q53T59) PRR3.2 mut (prolines of PRR3.2 replaced with alanine) (Q53T59 whole entry, change not shown): as above
Sequence of full-length MBP-HS1BP3 (from UniProt Q53T59) PRR3.1 mut (prolines of PRR3.1 replaced with alanine) (Q53T59 whole entry, change not shown): as above
Sequence of full-length MBP-HS1BP3 (from UniProt Q53T59) PRR3.1+3.2 mut (prolines of PRR3.1 and PRR3.2 replaced with alanine) (Q53T59 whole entry, change not shown): as above
Sequence of cortactin (CTTN), endogenous in MKN-74 cells (Q14247 whole entry, the tested form may be a part): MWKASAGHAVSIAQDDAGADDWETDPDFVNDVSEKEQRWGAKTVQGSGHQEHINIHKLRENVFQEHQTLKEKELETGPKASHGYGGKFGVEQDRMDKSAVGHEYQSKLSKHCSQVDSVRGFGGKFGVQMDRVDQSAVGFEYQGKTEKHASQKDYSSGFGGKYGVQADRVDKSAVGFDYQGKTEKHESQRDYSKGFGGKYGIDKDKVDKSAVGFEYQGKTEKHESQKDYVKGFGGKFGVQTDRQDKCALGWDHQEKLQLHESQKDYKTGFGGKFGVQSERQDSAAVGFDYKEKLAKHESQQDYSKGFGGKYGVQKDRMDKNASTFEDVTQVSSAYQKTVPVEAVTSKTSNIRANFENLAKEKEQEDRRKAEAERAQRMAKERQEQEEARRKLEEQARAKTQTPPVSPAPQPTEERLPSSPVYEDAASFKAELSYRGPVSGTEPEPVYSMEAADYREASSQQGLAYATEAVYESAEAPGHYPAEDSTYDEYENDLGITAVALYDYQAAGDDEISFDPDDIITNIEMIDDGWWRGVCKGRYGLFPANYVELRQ

| Substance | ratio to parent [1] | ratio to parent [2] | response [3] |
| --- | --- | --- | --- |
| full-length MBP-HS1BP3 (from UniProt Q53T59) PRR3.1 mut (prolines of PRR3.1 replaced with alanine) | 0.07 |  |  |
| full-length MBP-HS1BP3 (from UniProt Q53T59) PRR3.2 mut (prolines of PRR3.2 replaced with alanine) | 0.31 |  |  |
| full-length MBP-HS1BP3 (from UniProt Q53T59) PRR3.1+3.2 mut (prolines of PRR3.1 and PRR3.2 replaced with alanine) | 0.51 |  |  |
| EGFP-HS1BP3 WT (from UniProt Q53T59) PRR3.1 mut (prolines of PRR3.1 replaced with alanine) |  | 0.82 | 0.3 |
